Here are results for three molecules from doi:10.1101/2021.04.22.440577 (bioRxiv, 2021).

The target of series [1] is 4-fold tyrosine-phosphorylated C-Tir (pC-Tir), EPEC Tir residues 388-550 phosphorylated by Fyn (enteropathogenic Escherichia coli (EPEC)) (UniProt B7UM99). Kind of series: NMR titration.
Series [2] deals with the molecule itself. The series can be described thus: SEC + other: SAXS.

4-fold tyrosine-phosphorylated C-Tir (pC-Tir), EPEC Tir residues 388-550 phosphorylated by Fyn (enteropathogenic Escherichia coli (EPEC)), sequence (B7UM99 388-550): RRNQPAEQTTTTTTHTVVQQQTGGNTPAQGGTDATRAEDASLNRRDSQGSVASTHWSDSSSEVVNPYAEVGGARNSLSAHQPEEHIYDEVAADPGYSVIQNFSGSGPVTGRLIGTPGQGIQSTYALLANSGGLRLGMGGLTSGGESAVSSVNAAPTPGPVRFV

As for “C-terminal SH2 domain (C-SH2) of host tyrosine phosphatase SHP-1 (domain or fragment)”, in series [1], the apparent local KD of the remaining pY sites (pY474, pY483, pY511) was in the range of 3 to 9 μM and the fold enhancement of binding at the Y511 ITIM against unphosphorylated C-Tir came to 10 fold.

B1: N-terminal cytosolic region of EPEC Tir (N-Tir, residues 1-233) (domain or fragment, enteropathogenic Escherichia coli (EPEC), UniProt B7UM99 1-233, looked up)
chain: MPIGNLGNNVNGNHLIPPAPPLPSQTDGAARGGTGHLISSTGALGSRSLFSPLRNSMADSVDSRDIPGLPTNPSRLAAATSETCLLGGFEVLHDKGPLDILNTQIGPSAFRVEVQADGTHAAIGEKNGLEVSVTLSPQEWSSLQSIDTEGKNRFVFTGGRGGSGHPMVTVASDIAEARTKILAKLDPDNHGGRQPKDVDTRSVGVGSASGIDDGVVSETHTSTTNSSVRSDPK
In the case of B1, in series [2], the “stoichiometry N” value came to 2.

B2: Structured central part of N-Tir (N-Tir 60-200, NS-Tir) (domain or fragment, enteropathogenic Escherichia coli (EPEC), UniProt B7UM99 60-200, looked up)
chain: SVDSRDIPGLPTNPSRLAAATSETCLLGGFEVLHDKGPLDILNTQIGPSAFRVEVQADGTHAAIGEKNGLEVSVTLSPQEWSSLQSIDTEGKNRFVFTGGRGGSGHPMVTVASDIAEARTKILAKLDPDNHGGRQPKDVDT
With B2, the “stoichiometry N” value in series [2] was 2.

As usually defined, the stoichiometry N is a count of units in the complex or per binding partner.
